T1: CXCL10_HUMAN (Homo sapiens, UniProt P02778)
T1 sequence (P02778 22-98): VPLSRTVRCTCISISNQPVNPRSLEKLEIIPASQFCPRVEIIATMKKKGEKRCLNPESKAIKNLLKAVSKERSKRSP

T2: CXCL9_HUMAN (Homo sapiens, UniProt Q07325)
T2 sequence (Q07325 23-125): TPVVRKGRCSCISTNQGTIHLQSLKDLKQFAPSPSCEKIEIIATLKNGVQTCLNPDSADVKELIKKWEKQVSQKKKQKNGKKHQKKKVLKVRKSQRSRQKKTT

T3: CXCL1_HUMAN (Homo sapiens, UniProt P09341)
T3 sequence (P09341 35-107): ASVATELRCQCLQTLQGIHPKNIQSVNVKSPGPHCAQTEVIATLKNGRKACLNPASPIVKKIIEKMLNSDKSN

B1: P1101_IXORI: novel CXC-binding tick CKBP, Ixodes ricinus (protein, listed as Ixodes ricinus)
chain: HTTVAGSDEDIEVSYCGMNCTVESGKSSKCSPDCVCVHEGNERDGICISITYLGDLGNPLEDPSIDLATPLAPVFQSSK
B2: P1096_IXORI: novel CXC-binding tick CKBP, Ixodes ricinus (protein, listed as Ixodes ricinus)
chain: HTTVTGSVEGKPNNPNEDIEVSYCRMNCTVENGVSSACSGDCVCVHRDNEPNGICVEITYFGDFGDPSQDPSIDEAAPRESVSKRRSNGES
B3: P1134_IXORI: novel CXC-binding tick CKBP, Ixodes ricinus (protein, listed as Ixodes ricinus)
chain: NEEVFTVEYCGMNCTQKSDGTWTECSGKNKDCRCYHESDAREGLCLSTEYTDFSQFETPSNSDLEAATPRPRKTLYPVRNPHGPKTRGLGYDKRILRDRVKFLI
B4: P1080_IXORI: novel CXC-binding tick CKBP, Ixodes ricinus (protein, listed as Ixodes ricinus)
chain: SAGSKGSSAPQSSGDSVVAEFCDTNCTMKKDGKWTECNGDCFCVHVGNETVGRCMRLDGDYDYTSSKTTRRNKKTRNGLCRLDRNRTTVDYPERNTREP
B5: P1095_IXORI: novel CXC-binding tick CKBP, Ixodes ricinus (protein, listed as Ixodes ricinus)
chain: HSPVAGSEVQKLTSDPNDDIDVSYCGMNCTVVNGKSDECSENCKCLHEGDDPKGICVAITYFGDWGDPNDDPKINEATPQTQIFEKKRK
B6: P1074_IXORI: novel CXC-binding tick CKBP, Ixodes ricinus (protein, listed as Ixodes ricinus)
chain: GSKESSAHQSSDDSIKAEFCDAKCTMKTDGKWTQCHGGCFCVHVGNETEGRCMRLDGDYDYPSTQPEE
B7: P458_IXORI: novel CXC-binding tick CKBP, Ixodes ricinus (protein, listed as Ixodes ricinus)
chain: GSKQPGAAGSSSDSVEAVFCPTNCTKGTNGAWSGCSDDCICVHVGENTEGSCMKFSGDYDYPTPEA
B8: P1126_AMBCA: novel CXC-binding tick CKBP, Amblyomma cajennense (protein)
chain: KPQILQRTDKSTDSEWDPQTCPETCIPSKNITCSDGCVCVKLGEEEEGTCFNMTGVDWLGSPSDD
modifications: Amblyomma cajennense
B9: P1100_IXORI: novel CXC-binding tick CKBP, Ixodes ricinus (protein, listed as Ixodes ricinus)
chain: GSKGSSASQSSDNSVVAKFCDTNCTINEGGKWTECKGGCFCVHVGNETVGRCMKLDGDYDYPSPKPEE
B10: P1166_IXORI: novel CXC-binding tick CKBP, Ixodes ricinus (protein, listed as Ixodes ricinus)
chain: GPETKEDKKSDVYELFTVEYCGTNCTLLTNGRWTACTGKKGTCRCYHESGEKVGLCLSTEYTDFSEYPNPKSSEIDAAAPLPRETH
B11: P1229_IXORI: novel CXC-binding tick CKBP, Ixodes ricinus (protein, listed as Ixodes ricinus)
chain: DDEFFTVDYCGMNCTLQQDGSWTPCTQKNAECKCYHESGSSVGLCLSTAYTDFNQFGDPNNSDLDAATPRHPDASSR
B12: P1162_IXORI: novel CXC-binding tick CKBP, Ixodes ricinus (protein, listed as Ixodes ricinus)
chain: LNDEELFTVDYCGTNCTQQPNGSWTTCPGNCSCYHEDGKTDGFCLSTEYTDFTQFPNLTSEEMDAATPRPE
B13: P1132_IXORI: novel CXC-binding tick CKBP, Ixodes ricinus (protein, listed as Ixodes ricinus)
chain: LSDEDELFSVEYCGTNCTKQDTGSWTTCSGNCTCYHEDGKKVGLCLSTEYTDFTKFPKPTSEEIANARPLPKREKTLN
B14: P1104_IXORI: novel CXC-binding tick CKBP, Ixodes ricinus (protein, listed as Ixodes ricinus)
chain: ESKEASASQGPGKSFKVEFCETNCTENNGVWSGCTGDCICVSVGDSKEGRCMDLGDKVIDTPVAQG
B15: P1077_IXORI: novel CXC-binding tick CKBP, Ixodes ricinus (protein, listed as Ixodes ricinus)
chain: GSKQLIGPQSSTNSIKAEFCDTNCTAGTNGIWNGCSGDCFCTHVGNSTEGRCMKITGFDEYPTSEAEE

Each molecule was assayed against T1, CXCL10_HUMAN (assay: Yeast surface display (YSD) FACS binding). Settings: FACS re-test; mean percent shift where several clones.
Protocol: (§1) Table 1. Tick CKBPs described in PCT/GB2017/050563 and [17]. Tick peptide sequences isolated in yeast surface display fluorescent-activated cell sorting (FACS) screens using a labelled chemokine. Identity with Evasin-1, 4 or 3 was calculated using BLAST. Abbreviations: IXORI—Ixodes ricinus, RHISA—Rhipicephalus sanguineus, AMBMA—Amblyomma maculatum, AMBPA—Amblyomma parvum, AMBTR—Amblyomma triste, AMBAM—Amblyomma americanum, AMBCA—Amblyomma cajennense, RHIPU—Rhipicephalus pulchellus. Table 2A-C. Binding characteristics of tick CKBPs previously disclosed (PCT/GB2017/050563 and [17]). All members of the human chemokine family[164] are listed in column 1. Binding to human chemokines was determined for 14 tick CKBPs using biolayer interferometry (BLI) with calculated Kd shown as Molar (Moles/Litre). Binding data for 17 other novel tick CKBPs was assayed using yeast surface display[17,166],with positive binding results shown as “YES”. For biolayer interferometry, His-tagged purified tick CKBP was bound to a Ni-NINTA sensor on an OctetRed® 384 system, and then binding to each chemokine listed (with the exception of CCL25, CCL26, CXCL16, CXCL17, CXCL4L1, XCL2) was assayed in a cross-binding screen at a chemokine concentration of 300 nM as described. For those chemokines showing binding to a tick CKBP in the cross-binding screen, binding assays were repeated using different doses of chemokine. Association, equilibrium and dissociation data were analysed using Octet software to create corresponding fitted curves, and used to calculate Kd. For yeast surface display, (YSD) background fluorescence was controlled for by using either an empty vector or by omitting the chemokine (i.e. using streptavidin-Alexa647 alone). An arbitrary threshold of >3 fold over background mean fluorescence intensity was chosen to describe confirmed re-tests. Where binding was detected data are indicated as “YES”. […] For yeast surface display data, empty cells represent chemokines that were not tested. Binding data published in relation to previously described tick CKBPs (Evasins-1, 4 and 3) is also shown for comparison in each of FIGS. 2A-C, with the relevant data obtained from publications: [20-22,32]. Table 3: Neutralisation of human chemokines by tick CKBPs previously disclosed (PCT/GB2017/050563 and [17]). Neutralising activity was determined using a quantitative THP1 cell migration assay in a 96-well Boyden chamber with chemokine in the bottom chamber as described. Cells migrating through to the bottom chamber at 4 hours were counted using flow cytometry in a 96 well plate format. IC50 for neutralisation was determined at the chemokine EC80 dose as determined using a range of tick CKBP concentrations. Data was analysed using GraphPad Prism to determine IC50, which is shown as Molar (Moles/Litre). Empty cells represent experiments not done. Table 4—Other previously described tick CKBPs. Tick CKBPs that were also described in PCT/GB2017/050563 and Singh et al. are indicated in “Notes”. Table 5.—Novel tick CKBPs of the invention. Table 6. […] The peptide sequence prefix indicates the identity, and suffix indicate the tick species as follows: AMBCA, Amblyomma cajennense and IXORI, Ixodes ricinus. […] Certain tick peptides e.g. P1074_IXORI were recovered from screens performed with more than one chemokine. Individual yeast clones recovered from the library were re-tested using a FACS (fluorescence activated cell sorting), experiment. The binding of the peptide to the chemokine was assayed by measuring the percent (%), of yeast cells expressing the given peptide that exceeded a background threshold set by measuring the fluorescence of the yeast library pool treated with streptavidin-[…] alone. When more than one independent yeast clone was isolated for a given peptide-chemokine combination, the mean percent shift was calculated and reported in column 3. […]

Molecule	Chemokines bound in yeast surface display and % cells over threshold fluorescence: CXCL10_HUMAN
B1	CXCL10_HUMAN 75%
B2	CXCL10_HUMAN 50%
B3	CXCL10_HUMAN 66%

Each molecule was assayed against CXCL12_HUMAN (Homo sapiens, UniProt P48061) (assay: Yeast surface display (YSD) FACS binding). Settings: FACS re-test; mean percent shift where several clones.
CXCL12_HUMAN, sequence (P48061 22-93): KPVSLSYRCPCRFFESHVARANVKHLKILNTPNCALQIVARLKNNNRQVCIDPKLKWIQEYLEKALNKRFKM
Protocol: as §1

Molecule	Chemokines bound in yeast surface display and % cells over threshold fluorescence: CXCL12_HUMAN
B4	CXCL12_HUMAN 53%;
B5	CXCL12_HUMAN 47%

Each molecule was assayed against T2, CXCL9_HUMAN (assay: Yeast surface display (YSD) FACS binding). Settings: FACS re-test; mean percent shift where several clones.
Protocol: as §1

Molecule	Chemokines bound in yeast surface display and % cells over threshold fluorescence: CXCL9_HUMAN
B6	CXCL9_HUMAN 35%
B7	CXCL9_HUMAN 37%
B4	CXCL9_HUMAN 49%
B8	CXCL9_HUMAN 56%
B9	CXCL9_HUMAN 55%

The molecules below were run against T3, CXCL1_HUMAN (assay: Yeast surface display (YSD) FACS binding). Settings: FACS re-test; mean percent shift where several clones.
Parameters: label (chemical)
Protocol: as §1

Molecule	Chemokines bound in yeast surface display and % cells over threshold fluorescence: CXCL1_HUMAN
B10	CXCL1_HUMAN 63%
B11	CXCL1_HUMAN 66%
B12	CXCL1_HUMAN 72%
B13	CXCL1_HUMAN 68%
B14	CXCL1_HUMAN 65%
B15	CXCL1_HUMAN 50%

— patent US20200247855A1, “THERAPY AND DIAGNOSTICS” (OXFORD UNIVERSITY INNOVATION LIMITED, priority 2017, published 2020)
